Test results reported in patent US6653088 (AVENTIS PHARMA S A, dated 2003).
One block for each binder: values may come before it.

B2: S-tag-PS2Nt (recombinant PS2NT protein produced in bacterium) (other, not shown: small tags and cut ends)
chain: MLTFMASDSEEEVCDERTSLMSAESPTPRSCQEGRQGPEDGENTAQWRSQENEEDGEEDPDRYVCSGVPGRPPGLEEELTLKYGAKH
notes: also called unlabelled PS2NT

Key:
presenilin 2 (PS2) = target: T1, presenilin 2 (PS2) (human, UniProt P49810 1-448); test: co-immunoprecipitation from cotransfected COS cells, detection with αCT43
T1 construct: whole, on cells; Full-length membrane protein; complexes formed in transfected COS cells and were analysed in detergent lysates; also called complete PS2; STM2
Description: For immunoprecipitation, 100 μg of proteins are diluted in 400 μl of modified RIPA (150 mM NaCl, 50 mM Tris pH 8.0, 1% TRITON X100 v/v, 1% NP40 v/v). Thirty microlitres of protein A Sepharose suspension (0.1% m/v in PBS solution) and 3 μl of antibody are added. The suspensions are gently mixed on a rotating shaker at 4° C. for one night. The protein A Sepharose complex is washed 3 times with 0.5 ml of modified RIPA and once with 0.5 ml of "Wash C" washing buffer (10 mM Tris pH 7.5).

biot-3K-Aβ42RR = target: T2, biot-3K-Aβ42RR (UniProt P05067 672-713, biotin at the N-terminal end); test: HTRF competition; unlabelled PS2NT displaces PS2NT-K from biot-Aβ42
T2 construct: domain: Aβ1-42; also called biot-Aβ42; biot-Aβ1-42

[1] = target: B2; test: 96-well plate test (ELISA type), peptide on plastic, S-tag detection
Description: The plates are rinsed twice with PBS and the non-specific immobilization sites are saturated by incubation with 5% (w/v) of bovine serum albumin in PBS. […] The detection of the signal is carried out in a spectrophotometer at 450 nm.
The Aβ peptide (Aβ40 or Aβ42) is immobilized by incubation on plastic 96-well plates.

binding result (presenilin 2 (PS2)): no binding
B1: cytoplasmic domain of the APP (MC45F) (other, not shown: small tags and cut ends)
chain: KKQYTSIHHGVVEVDAAVTPEERHLSKMQQNGYENPTYKFFEQMQNDYDDDDK
notes: also called cytoplasmic domain of APP; the 45 last residues of the APP

Binder: B2
IC50 (biot-3K-Aβ42RR): 400 nM

binding result [1]: no binding
B3: amyline (peptide, UniProt P10997 34-70, looked up)
peptide: KCNTATCATQRLANFLVHSSNNFGAILSSTNVGSNTY
notes: also called another amyloidogenous peptide
